Measurements taken from PMC4749553 (2015).

Target: T1, His6-Tim44(43–263) (Saccharomyces cerevisiae (strain ATCC …, UniProt Q01852))
T1 chain: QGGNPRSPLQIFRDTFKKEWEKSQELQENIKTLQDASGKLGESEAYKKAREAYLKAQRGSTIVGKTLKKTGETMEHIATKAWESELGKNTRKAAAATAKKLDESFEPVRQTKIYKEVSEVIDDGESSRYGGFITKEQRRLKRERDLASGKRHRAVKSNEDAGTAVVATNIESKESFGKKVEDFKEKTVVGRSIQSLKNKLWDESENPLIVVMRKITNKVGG
Experiment: Ni-NTA pull-down, Coomassie-stained SDS-PAGE

binding result: no binding
B1: Tim44(211–431) (protein)
chain: NIESKESFGKKVEDFKEKTVVGRSIQSLKNKLWDESENPLIVVMRKITNKVGGFFAETESSRVYSQFKLMDPTFSNESFTRHLREYIVPEILEAYVKGDVKVLKKWFSEAPFNVYAAQQKIFKEQDVYADGRILDIRGVEIVSAKLLAPQDIPVLVVGCRAQEINLYRKKKTGEIAAGDEANILMSSYAMVFTRDPEQIDDDETEGWKILEFVRGGSRQFT
